Experimental data as given in EP0672680A1 (KYOWA HAKKO KOGYO CO., LTD., dated 1995).
Ends that are not written are not given here.

Key:
[1] = target: T1, protein-farnesyltransferase derived from bovine brains (bovine, UniProt P29702 2-375; P49355 1-437); experiment: cell-based or functional assay
[2] = target: T1, protein-farnesyltransferase derived …; experiment: cell-based or functional assay; remark: listed apart in the source

Row | Binder | IC50, protein-farnesyltransferase inhibiting activity in SPA enzyme assay kit (intake of [3H]-farnesyl diphosphate by biotin-lamin-B peptide) [1] [µM] | IC50, protein-farnesyltransferase-inhibiting activity (transfer of [3H]-farnesyl diphosphate to v-Ki-Ras p21) [2] [µM]
1 | VYAVTGRGDSPASSGCVLS-OH (not fully specified (bridges); also: cyclic amide Gly alpha-amino to Asp side chain, places unclear) [compound (3)] | 0.42 | 0.56
2 | VYAVTGRGDSPAFGGRIDRI-OH (not fully specified (bridges); also: cyclic amide Gly alpha-amino to Asp side chain, places unclear) [compound (4)] |  | 9
3 | VYAVTGRGDSPAAFGGRIDRIGAA-OH (not fully specified (bridges); also: cyclic amide Gly alpha-amino to Asp side chain, places unclear) [compound (5)] |  | 19
